The nature of the data set: soluble on expression in E. coli; label from the status in PepcDB or PDB records.
As for “MSIRIIPQDELGSSEKRTADMIPPLLFPRLKNLYNRRAERLRELAENNPLGDYLRFAALIAHAQKVVLYDHPLEMDLTARIKEASAQGKPPLDIHVLPRDKHWQKLLMALIAELKPEMSGPALAVIENLEKASTQELEDMASALFASDFSSVSSDKAPFIWAALSLYWAQMANLIPGKARAEYGEQRQYCPVCGSMPVSSMVQIGTTQGLRYLHCNLCETEWHVVRVKCSNCEQSGKLHYWSLDDEQAAIKAESCDDCGTYLKILYQEKEPKVEAVADDLASLVLDARMEQEGYARSSINPFLFPGEGE”, the “soluble on expression in E. coli” value is “not soluble”.
Then “MGSDKIHHHHHHDDDNTANPAEEVVKASKKHDTAILLCTFGSTFKESIKTYDATLADFQNAFPDADIYLSFTSRTCVNRVEAETGIARYQPDLWLQALGNAGYKKVAVQSLHIIPGEEYLSLMNTDVKKKFMIESFPSVQVVKSPCLVYNEEDVEAVAKVLYSHYSDKLADNKNILLLMGHGNPDKNYNANTKYTETEEAMQALAANKNVFVGTVDYGDMLFWPEEGEPNEECVYSKLTKYCEDHNLKPEEITISLAPFMSIAGDHAHNDLWGIEEGDDFSAAAPNADACWRLKLLKMGFKIDTKESHNGSLENCKIIGLGDYDAVRQIWVNHLKALYNDAEAWETGEDYQ”, with “not soluble”; and “MGSDKIHHHHHHMNMNREQLKFCLLGAVFLFGGCTASDPRTHLDSSADTLFQITPDQNHAALERQSGTDQYLKLLLNVAEDAEVKEVQVKPGLVSKDTATLSMPLTDGRTVSFKLSRSDSVASGMVGWVGDMPSNRRQLYPSPAEIDMDPLNWVSLVSDGNLVVGDIRVDGQLYRLTAVGKGQQVLVKVDESKLPPEAAPIPVPVQAQEKTRSLSTSQSRKSTIRVLFVTTHQSRAMFPNYKIELAQALQNANQYLINSKVDAVYELSDIYDSDYDETGKSPQTQLSDMKADKPFGAKIHIEREKGRADLVSMLSTFSIYCGIANLTASVERAFSAISCFGSLGHELGHNMGAGHKDEAPVASLPPYAYGYQHTAPNFHTQMRTSNGAIPYHSNPRLQYQGVPMGTVDKNDVARTFNENRDTVANFYPDPAHRVRLWLYGANRGCFIDLKPGEQALLSWFTECKDNDVNPVRVEVKDFYSGSTPRKLCFANIFYTVNSCYTGSNFSGDFVITSVHTGGGKPEGFKFTRRLIGPVYRVSYE”, with “not soluble”; and “MGVMNKGDSVEKCYMCDAEGNTKEHVPPKCIFPEAKDVPSGDNYKKNLITVRSCEKHNTAKSKDDVYLLFFLAANVVSNDLAQTQFGTKIMRAVNRTPHVFAQFAKKNTPVTLKGENGELIHTAAIEIDRARFDAAIEHISHALHYHKYGETFIGDIQVITSGLVDLSSIDSVEVNDRIQNFGQMVDELLADVEPEGDNPEVFTYKVLKTDEPHQVIIQMNFYGGFKIVSIMKYS”, with “not soluble”.
Then “SAQTTDTGWMTNPQHPPVQTRFVLTGQQDPQAKTLTGYLDVKLTGDWKTYWRSPGEGGVAPSIDWQNSQNLSKVDWQWPYPQKFELLGIETLGYKGDTLFPMTLHIDNMSKPVTIDAVLTLSSCTTICVLTDYQIQLTFLPSELQIDEQVMFSYAQAVSNVPQPSPFIDVTQASWDANQSKLQIKLTNTQGWNQPQVLVDGVDEATRDYSFKLEGIHQEGNTVTASYLVDTWLGDVELSDQSLFVTIKDANLLAEETTQAIAEAIVDPLPSTSVVS”, with “soluble”; and “MGHHHHHHSHMGKQKKTRKYATMKRMLSLRDQRLKEKDRLKPKKKEKKDPSALKEREVPQHPSCLFFQYNTQLGPPYHILVDTNFINFSIKAKLDLVQSMMDCLYAKCIPCITDCVMAEIEKLGQKYRVALRIAKDPRFERLPCTHKGTYADDCLVQRVTQHKCYIVATVDRDLKRRIRKIPGVPIMYISNHRYNIERMPDDYGAPRF”, with “not soluble”.
“MSKKTLSTVNYQLSTDTMCLAIPGQVIEIREENGLKMGTVDISGALTKACLEYVPEIAIGQYTIVHAGFALKIIDEKEAAESLKLWDELIKSGAFDVDGELPPSPIQKPEA”: the “soluble on expression in E. coli” value was “not soluble”.
In the case of “SNMQLDTLRRIVQEINSSVSLHDSLDIMVNQVADAMKVDVCSIYLLDERNQRYLLMASKGLNPESVGHVSLQLSEGLVGLVGQREEIVNLENASKHERFAYLPETGEEIYNSFLGVPVMYRRKVMGVLVVQNKQPQDFSEAAESFLVTLCAQLSGVIAHAHAVGNIDVFRKPSNGA”, the “soluble on expression in E. coli” value is “soluble”.
In the case of “MESKAENRKKILQMLKNFSDYEKRRQNKDVLKQLTASSKWKSAKKIALYMSMPIEFNLTELFDQSDDKEILIPKCLPERQMIFAKYDKENLVRSKFGLLEPKSEIAVEPDFILVPGLIWNDEGYRIGFGGGYYDRYLANFEGSTASVLYDFQKMDFEAESHDIAVQELFIGRKNNEFLEHHHHHH”, the “soluble on expression in E. coli” value is on record as “soluble”.
Turning to “MAHHHHHHMALPRGMHLLLKIYLQKCRLRWLREALNCIRGMVSMRLVMASMGSTPVERHKGEVAPGAEGEDTHFWLDGSFAEAEEALRQFFEMIKFPLPQRFSFAEEIRRDMKKRYPHCGEEALKSEEDITVVDAAALFKCVDGYIAFLSTRSDVGIGNAE”, the “soluble on expression in E. coli” value is listed as “not soluble”.
With “MGKREKKPNRRRHKGEYSNDAEDFYDQHPPAVASVDEEDEENSDEEEEENDGNESSDLPSKFLLYQQSVQSPKGDISYLQKFFLIFYIDCWNSAEWLKTDTRRTAIGLDFDLEALEWCMDNNISKLGSDVYSRMSLFHGNVLTPLEAKQVKSKSHELIQNISLDDGDDNEDLADPSVVESLEKDGPDSLPKRDIVCAFNFSCCCLHKRSELVSYFKNARDALSKKGGIFVMDLYGGASAEGQLKLQRKFPNFTYTWEQAEFDILSRKTRISLHYHLQKQNRKIRHAFSYSWRLWSLPEIKDCMEEAGFSSVHFWLREMPDASEMRRTDGFGAGRDIKYEQVKSFQQCDSWNAYIVAVSL”, the “soluble on expression in E. coli” value is recorded as “not soluble”.
Then “MRIQVNAKGAARLLSRHLWVFRRDVVSGPETPGLYPVYWGRRFLALALYNPHTDLAVRAYRFAPAEDPVAALLENLAQALARREAVLRQDPEGGYRLVHAEGDLLPGLVVDYYAGHAVVQATAHAWEGLLPQVAEALRPHVQSVLAKNDARTRELEGLPLYVRPLLGEVPERVQVQEGRVRYLVDLRAGQKTGAYLDQRENRLYMERFRGERALDVFSYAGGFALHLALGFREVVAVDSSAEALRRAEENARLNGLGNVRVLEANAFDLLRRLEKEGERFDLVVLDPPAFAKGKKDVERAYRAYKEVNLRAIKLLKEGGILATASCSHHMTEPLFYAMVAEAAQDAHRLLRVVEKRGQPFDHPVLLNHPETHYLKFAVFQVL”, with “soluble”; and “MSDTLRPYKNLFPGIGQRVMIDTSSVVIGDVRLADDVGIWPLVVIRGDVNYVAIGARTNIQDGSVLHVTHKSSSNPHGNPLIIGEDVTVGHKVMLHGCTIGNRVLVGMGSIVLDGAIIEDDVMIGAGSLVPQHKRLESGYLYLGSPVKQIRPLSDAERSGLQYSANNYVKWKDDYLSQDNHIQP”, with “not soluble”.
For “MTKVHVVLRKEDIDEMALADRKVAVVFDVLLATSSITAVLAAGARSVIPVRDAEEAKEIALRLPEGSYELVGEYEGRTIAGFHPPAPLFLQTVCPGKTVVLSTTNGTVAIRRAQPARAVYAASLLNSPAVSEHICRLHQEETIIVICSGSSGRFCLEDFYGAGYFVHCLIEQGINAAELSDSATAAWFFYRQYSDEGKAKEVLSASRVGRWMTAYGLEKEIDYINRHGSLSAVPKLELGPFGLELRNMASTKVAKEGISP”, the “soluble on expression in E. coli” value is “soluble”.
Then “MNQLTSSFIQNLAEDNIYKLPPHSIEAEQSVLGGLMLDNQAWDKVADIIIESDFYRQDHQLIYQHISRLIEQNKPADVITVAESLENAAQLQHAGGLAYIGAIAQNTPSAANIRRYAEIVRERSIMRKL”, with “not soluble”; and “MDHDKLEANLLDHALTKYLKSTKQLDEATVPKHVNNVRGFILRIIYRHGSCTIKDILKEVTLSPSATTTALNHLEQEGFIERSRNNNDRRTVWITLSESGRGAAEQMIENRQQLIDGMFERLTAEEKKTFLAIIAKLAQ”, with “not soluble”.
Then “MAHSTIPTLLCFCDEPLKRTNEGAEHVNQARRYAKWHVYRERGYETVPPTENPDSLLAACIAVARLSETAFEDAFGDIEAQIRSHYDDSTVELPFADADGSDILVYKKDIAVRPDPMTFDPPVLEQFLGQFSGDSDSPVVPAKADLDREVFDDLDFELKSVSGMHYLHNDGYDNERTVQSSQRLGTDPDATVEMIPVDPAEFGNFQHYVTSNLIYQARDVLLRMGVKPPIAFRAQGQGKYRATLEQQACPQYENYWDATADIQSWEPK”, with “not soluble”; and “MAIESEVLVIGGGLGGLTSALAAAREGADVRLVSYKQSTLRQASGLVDVLGYTPDGDGPLTDPYEAIPSLPEAHPYRKVGVQTVRDALSLFDDAVPTYEGEHTDTNALLPTHGGSIKPTARYPAGASAGLASDTRDTLLVGIEEMVDFDAPHVAAHLDATGVPFDVRGETIRFPGDLRADAKVTRYAKLLDTNSEVAVRGRMVPAREALAQRVNPLLEDEERVGFPAILGDDNPGAIRDALGDHLGVDVFEVPMGPPSLPGLRLEDALFSALDEAGASIETGNPVVDFDGEDRIEKVFIEKNGAKIPNSADQYVLATGGFVGKGVESDREGVYEPVFDCHIPHAADRYDWFEGELFGDHEFARYGVATDDDLRPLDASEHSEFENLRAAGSVLGGYDFAAEKSGSGVSIATGYAAGQRAAQEARLEHHHHHH”, with “soluble”.
“MSTNPFAILRLPESALRKSINQMGLMEQFSLSVLSNKTKHAVTMLPEVKNDVSITMTSSLELLLSNHSQDVDFIFEMDSHYPNVEIRQRFDNARCRFTQLSIPGFTVKHWIEHIVDVFCKNQGVALIFESIMRERFYELYEIIKNIKIVHLEPFSSQIQDYQRLTLFPSLEWLTVIGVDEAPIGTPILIQNFEGFIIFPNIQWKIDDVLISNFSNLRMWHRTFSVQDLNLFMRQWIKGSMPRLEEFDVILSHSNQHKLVETDLFKSIKYTVKENENCKINVIKRRDGAKASVCFGGKSSYEFHFTVESEPD”: the “soluble on expression in E. coli” value is recorded as “not soluble”.
Then “MGSDKIHHHHHHMRNAHDILDNIVYDFANATGLGSVAVDLNGKEISPWYNFTSFCQQVRQIAAYHPYCQQCDRCGGFESTKAKQIQCYRCHAGLVDFSIPIFINGNLTGFVSCGQARVAENLPLPKIVENDKNLPTESKLIELYHEVPELSLMKIKSAAQLLNLIIENYLSKEYNLRIVKNVSPVKNQKLETLGRHQATMEMILNHINQNFSDNLNLEQMASKANLSMFYFSRTFKELTGTGFTAYLINKRMTEAHCLLEQTNWSIEKIARSVGYNDVHYFSRLFKKTFNRSPSEFRNHSSGFSM”, with “not soluble”; and “GPGSMGQHSAKEFRGSRRGESNSGVFPLGPGHAHVGMGSTKKPLGIHTSAVQNNVLRQRNQHRRVMHEEGGSHPRGQEADGSHGEDIAEEKFPVVIRYAAHDVRSLLSSNEKVYVAVESLNWSKLPMTASEDSFYAIVELPQGPQRFRFVVGETEVVDTAQPIEDIAEGTPLLEPRGDVGHKGETRANVIHVNKALLLTKEDEEVPDDGSGWGQEEIIHKEDRKHPPIMPVHLRYTPVNTPLTAARCALDGFMRTTDEDTVSPENLPIPLSVTVNHVYFQRREDHCVTAMTTRFCNKYSTMVYYSKAEPTASLQ”, with “not soluble”.
Take “MWYQKTLTLSAKSRGFHLVTDEILNQLADMPRVNIGLLHLLLQHTSASLTLNENCDPTVRHDMERFFLRTVPDNGNYEHDYEGADDMPSHIKSSMLGTSLVLPVHKGRIQTGTWQGIWLGEHRIHGGSRRIIATLQGELEHHHHHH”: the “soluble on expression in E. coli” value is “soluble”.

The values are drawn from the DeepSol protein solubility set.
